From patent US20190359687A1 (Bayer, published 2019)

Assays:
[1] = molecular target: T1, human glycophorin A on human red blood cells or red blood cell membranes (human, UniProt P02724 20-150); experiment: scFv on intact human RBC, unbound scFv by ELISA; 20 min after 200-fold dilution
T1 construct: whole, on cells; also called hRBC; human RBC membranes
T1 sequence (looked up): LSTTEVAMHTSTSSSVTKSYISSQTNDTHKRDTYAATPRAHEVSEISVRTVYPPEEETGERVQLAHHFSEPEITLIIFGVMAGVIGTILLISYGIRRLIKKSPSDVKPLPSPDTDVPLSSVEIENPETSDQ
Experimental: (§1) RBC diluted to 1/10th of normal hematocrit were incubated with the set of “Top 10” purified scFv antibodies at a final concentration of 7 ug/ml for 1 hour at room temperature on a rotating shaker after which a sample was taken and the RBC were pelleted by centrifugation and the supernatant was collected. The remaining RBC suspension was diluted 200-fold in PBS buffer and incubated for a total of 2 hours at room temperature on a rotating shaker and samples were removed at 0, 5 min, 20 min, 1 h and 2 h and the RBC pelleted and the supernatant collected. […] The percentage that remains bound after dilution is an indication of the overall strength of the binding to human RBC.

[2] = molecular target: T1, human glycophorin A on human red blood …; experiment: scFv on intact human RBC, unbound scFv by ELISA; 60 min after 200-fold dilution
Experimental: as §1

[3] = molecular target: T1, human glycophorin A on human red blood …; experiment: scFv on intact human RBC, unbound scFv by ELISA; 5 min after 200-fold dilution
Experimental: as §1

[4] = molecular target: T1, human glycophorin A on human red blood …; experiment: scFv on intact human RBC, unbound scFv by ELISA; 0 min after 200-fold dilution
Experimental: as §1

[5] = molecular target: T1, human glycophorin A on human red blood …; experiment: scFv 7 ug/ml on intact human RBC, unbound scFv by ELISA; pre-dilution
Experimental: as §1

[6] = molecular target: T1, human glycophorin A on human red blood …; experiment: scFv on intact human RBC, unbound scFv by ELISA; 120 min after 200-fold dilution
Experimental: as §1

[7] = molecular target: T2, Cynomolgus monkey glycophorin A on Cynomolgus monkey red blood cells or red blood cell membranes (Cynomolgus monkey); experiment: Fab on intact cyno RBC, unbound Fab by ELISA; 0 min after 200-fold dilution
T2 construct: whole, on cells; also called Cyno RBC; Cynomolgus monkey RBC membranes
Experimental: (§2) The binding of affinity matured Fab antibodies to intact Cynomolgus monkey RBC was measured. Cynomolgus monkey RBC were isolated from fresh anti-coagulated blood by centrifugation through a ficol gradient and washing in PBS buffer. RBC diluted to 1/10th of normal hematocrit were incubated with the Fab at a final concentration of 7 ug/ml for 1 hour at room temperature on a rotating shaker after which a sample was taken and the RBC were pelleted by centrifugation and the supernatant was collected. The remaining RBC suspension was diluted 200-fold in PBS buffer and incubated for a total of 2 hours at room temperature on a rotating shaker and samples were removed at 0, 5 min, 20 min, 1 h and 2 h and the RBC pelleted and the supernatant collected. […] The amount of Fab in the supernatants was then measured using an ELISA assay and the results used to calculate the percentage of the input Fab that was bound to the RBC.

[8] = molecular target: T2, Cynomolgus monkey glycophorin A on …; experiment: Fab on intact cyno RBC, unbound Fab by ELISA; 120 min after 200-fold dilution
Experimental: as §2

[9] = molecular target: T2, Cynomolgus monkey glycophorin A on …; experiment: Fab on intact cyno RBC, unbound Fab by ELISA; 60 min after 200-fold dilution
[10] = molecular target: T2, Cynomolgus monkey glycophorin A on …; experiment: Fab 7 ug/ml on intact cyno RBC, unbound Fab by ELISA; pre-dilution
Experimental: as §2

[11] = molecular target: T1, human glycophorin A on human red blood …; experiment: Fab on intact human RBC, unbound Fab by ELISA; 120 min after 200-fold dilution
Experimental: (§3) The binding of affinity matured Fab antibodies to intact human RBC was also measured. Human RBC were isolated from fresh anti-coagulated normal human blood by centrifugation through a ficol gradient and washing in PBS buffer. RBC diluted to 1/10th of normal hematocrit were incubated with purified Fab antibodies at a final concentration of 7 ug/ml for 1 hour at room temperature on a rotating shaker after which a sample was taken and the RBC were pelleted by centrifugation and the supernatant was collected. The remaining RBC suspension was diluted 200-fold in PBS buffer and incubated for a total of 2 hours at room temperature on a rotating shaker and samples were removed at 0, 5 min, 20 min, 1 h and 2 h and the RBC pelleted and the supernatant collected. The amount of Fab in the supernatants was then measured using an ELISA assay and the results used to calculate the percentage of the input Fab that was bound to the RBC. […] The percentage that remains bound after 200-fold dilution of the RBC suspension is an indication of the overall strength of the binding to human RBC.

[12] = molecular target: T1, human glycophorin A on human red blood …; experiment: Fab on intact human RBC, unbound Fab by ELISA; 5 min after 200-fold dilution
Experimental: as §3

[13] = molecular target: T1, human glycophorin A on human red blood …; experiment: Fab 7 ug/ml on intact human RBC, unbound Fab by ELISA; pre-dilution
Experimental: as §3

[14] = molecular target: T2, Cynomolgus monkey glycophorin A on …; experiment: Fab on intact cyno RBC, unbound Fab by ELISA; 20 min after 200-fold dilution
Experimental: as §2

[15] = molecular target: T1, human glycophorin A on human red blood …; experiment: SPR (Biacore), Fab on human RBC membranes;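 also: human RBC membranes captured on an L1 sensor chip, Fab fragments passed over as analyte, binding kinetics read by surface plasmon resonance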
Experimental: (§4) Kinetic analysis of the antibody binding to human red blood cell membranes was also performed using surface plasmon resonance (SPR) using a Biacore instrument. In this assay membranes prepared from human red blood cells were attached to a L1 sensor matrix and antibodies were flowed over the RBC membranes.
(§5) The binding kinetics of the affinity matured Fab antibodies was also measured.

[16] = molecular target: T2, Cynomolgus monkey glycophorin A on …; experiment: Fab on intact cyno RBC, unbound Fab by ELISA; 5 min after 200-fold dilution
Experimental: as §2

[17] = molecular target: T1, human glycophorin A on human red blood …; experiment: SPR (Biacore), Fab on human RBC membranes; * not accurate, instrument limit;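 as to kd: human RBC membranes captured on an L1 sensor chip, Fab fragments passed over as analyte, binding kinetics read by surface plasmon resonance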;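 as to koff: human RBC membranes captured on an L1 sensor chip, Fab fragments passed over as analyte, binding kinetics read by surface plasmon resonance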
Experimental: as §4, §5

[18] = molecular target: T1, human glycophorin A on human red blood …; experiment: SPR (Biacore), Fab on human RBC membranes; T½ = 0.69/kd;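 as to kd: human RBC membranes captured on an L1 sensor chip, Fab fragments passed over as analyte, binding kinetics read by surface plasmon resonance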
Experimental: as §4, §5

[19] = molecular target: T1, human glycophorin A on human red blood …; experiment: Fab on intact human RBC, unbound Fab by ELISA; 20 min after 200-fold dilution
[20] = molecular target: T1, human glycophorin A on human red blood …; experiment: Fab on intact human RBC, unbound Fab by ELISA; 60 min after 200-fold dilution
Experimental: as §3

[21] = molecular target: T1, human glycophorin A on human red blood …; experiment: Fab on intact human RBC, unbound Fab by ELISA; 0 min after 200-fold dilution
Experimental: as §3

| Binder | percentage of input antibody bound [7] [%] | percentage of input antibody bound [8] [%] | percentage of input antibody bound [9] [%] | percentage of input antibody bound [10] [%] | percentage of input antibody bound [11] [%] | percentage of input antibody bound [12] [%] | percentage of input antibody bound [13] [%] | percentage of input antibody bound [14] [%] | Kd [15] [nM] | koff [15] [s⁻¹] | percentage of input antibody bound [16] [%] | kon [17] [M⁻¹ s⁻¹] | Estimated T½ [18] [min] | percentage of input antibody bound [19] [%] | percentage of input antibody bound [20] [%] | percentage of input antibody bound [21] [%] | further results |
| --- | --- | --- | --- | --- | --- | --- | --- | --- | --- | --- | --- | --- | --- | --- | --- | --- | --- |
| TPP-7792 scFv with C-terminal 6xHIS tag (scFv) scFv: DIQLTQSPSFLSASVGDRVTITCRASSSVRYIYWFQQKPGKAPKLLIYATSFRQSGVPSRFSGSGSGTEYTLTISSLQPEDFATYYCHQRNSFPYTFGQGTKLEIKGGGGSGGGGSGGGGSGGGGSEVQLVQSGAEVKKPGASVKVSCKASGYTFTTYAIHWVRQAPGQGLEWMGYINPSSGYTRYNPKFKGRVTMTRDKSTSTAYMELRSLRSDDTAVYYCWTGTRDYWGQGTTVTVSSHHHHHH |  |  |  |  |  |  |  |  |  |  |  |  |  |  |  |  | percentage of input scFv antibody bound [1]: 98%; percentage of input scFv antibody bound [2]: 95%; percentage of input scFv antibody bound [3]: 99%; percentage of input scFv antibody bound [4]: 100%; percentage of input scFv antibody bound [5]: 100%; percentage of input scFv antibody bound [6]: 92% |
| TPP-7778, affinity matured 6C12 Fab (Fab, V domains shown, Tested as Fab) VH: EVQLVQSGAEVKKPGASVKVSCKASGYTFTTYAIHWVRQAPGQGLEWMGYINPSSGYTRYNPKFKHRVTMTRDKSTSTAYMELRSLRSDDTAVYYCQTGTRDYWGQGTTVTVSS VL: DIQLTQSPSFLSASVGDRVTITCRASSSVRYIYWFQQKPGKAPKLLIYATSTLQSGVPSRFSGSGSGTEYTLTISSLQPEDFATYYCHQRNSFPYTFGQGTKLEIK | 56 | 27 | 36 | 81 | 64 | 76 | 95 | 48 | 0.011 | 0.0011 | 54 | 1e+08 | 10 | 66 | 66 | 84 |  |
| TPP-7793, affinity matured 6C12 Fab (Fab, V domains shown, Tested as Fab) VH: EVQLVQSGAEVKKPGASVKVSCKASGYTFTRYTIHWVRQAPGQGLEWMGYINPSSGYTRYNPKFKGRVTMTRDKSTSTAYMELRSLRSDDTAVYYCWTGTRDYWGQGTTVTVSS VL: DIQLTQSPSFLSASVGDRVTITCRASSSVSYIYWFQQKPGKAPKLLIYATSTLQSGVPSRFSGSGSGTEYTLTISSLQPEDFATYYCHQRNSFPYTFGQGTKLEIK | 58 | 46 | 51 | 72 | 86 | 92 | 98 | 51 | 0.0246 | 0.000504 | 58 | 2.05e+07 | 23 | 86 | 85 | 96 |  |
| TPP-7781, affinity matured 6C12 Fab (Fab, V domains shown, Tested as Fab) VH: EVQLVQSGAEVKKPGASVKVSCKASGYTFTTYTIHWVRQAPGQGLEWMGYINPKSGWTRYNPKFKGRVTMTRDKSTSTAYMELRSLRSDDTAVYYCQTGTRDYWGQGTTVTVSS VL: DIQLTQSPSFLSASVGDRVTITCRASSSVRYIYWFQQKPGKAPKLLIYATSTLQSGVPSRFSGSGSGTEYTLTISSLQPEDFATYYCHQRNSFPYTFGQGTKLEIK | 40 | 19 | 24 | 86 | 59 | 69 | 97 | 32 | 0.0289 | 0.000547 | 34 | 1.89e+07 | 21 | 61 | 64 | 93 |  |
| TPP-7796, affinity matured 6C12 Fab (Fab, V domains shown, Tested as Fab) VH: EVQLVQSGAEVKKPGASVKVSCKASGYTFTTYTIHWVRQAPGQGLEWMGYINPKSGWTRYNPKFKGRVTMTRDKSTSTAYMELRSLRSDDTAVYYCQTGTRDYWGQGTTVTVSS VL: DIQLTQSPSFLSASVGDRVTITCRASSSVSYIYWFQQKPGKAPKLLIYATSTLQSGVPSRFSGSGSGTEYTLTISSLQPEDFATYYCHQRNSFPYTFGQGTKLEIK | 56 | 0 | 7 | 68 | 13 | 48 | 96 | 21 | 0.111 | 0.00238 | 43 | 2.15e+07 | 5 | 12 | 15 | 82 |  |
| TPP-7795, affinity matured 6C12 Fab (Fab, V domains shown, Tested as Fab) VH: EVQLVQSGAEVKKPGASVKVSCKASGYTFTTYTIHWVRQAPGQGLEWMGYINPKSGWTRYNPKFKGRVTMTRDKSTSTAYMELRSLRSDDTAVYYCQTGTRDYWGQGTTVTVSS VL: DIQLTQSPSFLSASVGDRVTITCRASSSVSYIYWFQQKPGKAPKLLIYATSFLQSGVPSRFSGSGSGTEYTLTISSLQPEDFATYYCHQRNSFPYTFGQGTKLEIK |  | 22 | 29 | 73 | 63 | 74 | 95 | 39 |  |  | 51 |  |  | 63 | 63 | 86 |  |
| TPP-7782, affinity matured 6C12 Fab (Fab, V domains shown, Tested as Fab) VH: EVQLVQSGAEVKKPGASVKVSCKASGYTFTTYTIHWVRQAPGQGLEWMGYINPSSGYTRYNPKFKGRVTMTRDKSTSTAYMELRSLRSDDTAVYYCQTGTRDYWGQGTTVTVSS VL: DIQLTQSPSFLSASVGDRVTITCRASSSVRYIYWFQQKPGKAPKLLIYATSFRQSGVPSRFSGSGSGTEYTLTISSLQPEDFATYYCHQRNSFPYTFGQGTKLEIK | 88 | 52 | 57 | 94 | 77 | 83 | 99 | 59 | 0.0295 | 0.000413 | 68 | 1.4e+07 | 28 | 76 | 79 | 95 |  |
